T1: biotinylated peptide representing the N-terminus of C5aR1 without tyrosine sulfation (Homo sapiens, UniProt P21730)
T1 construct: the N-terminus without tyrosine sulfation
T1 sequence (P21730 1-37 limits assumed): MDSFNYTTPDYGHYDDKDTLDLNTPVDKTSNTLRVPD

T2: biotinylated peptide representing the N-terminus of C5aR1 with tyrosine sulfation (Homo sapiens, UniProt P21730)
T2 construct: the N-terminus with tyrosine sulfation
T2 sequence (P21730 1-37): T1 sequence (P21730 1-37 limits assumed)

T3: C5aR1 (Homo sapiens, UniProt P21730)
T3 sequence (P21730 1-350): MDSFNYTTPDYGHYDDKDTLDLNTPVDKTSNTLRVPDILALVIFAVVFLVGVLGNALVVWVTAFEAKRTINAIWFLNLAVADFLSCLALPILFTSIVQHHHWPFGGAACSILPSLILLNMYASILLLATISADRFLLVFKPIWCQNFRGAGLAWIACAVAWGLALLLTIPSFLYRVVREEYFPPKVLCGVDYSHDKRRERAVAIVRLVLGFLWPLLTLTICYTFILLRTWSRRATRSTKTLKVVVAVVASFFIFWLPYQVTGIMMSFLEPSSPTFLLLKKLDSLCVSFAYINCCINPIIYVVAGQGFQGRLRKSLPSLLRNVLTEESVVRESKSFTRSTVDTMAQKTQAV

B1: clone 66: anti-C5aR1 Site I antibody; VH SEQ ID NO: 483, VL SEQ ID NO: 543 (antibody, V domains shown)
VH: QVQLQQSDAELVKPGASVKISCKASGYTFIDHAIHWVKQRPEQGLEWIGYISPGNGEIKYNEKFKAKATLTADKSSSAAYMQLNSLTSADSAVYFCKRALFYYTGKYQPMDYWGQGTTVTDSS
VL: DIVMTQSQKFMSTTAGDRVSITCKASQNVGSAVVWYQQKPGRSPKLLIYSSSIRYTGVPDRFTGSGSGTDFTLTINSVQSEDLADYFCQQYNSFPLTFGAGTKLEIK
B2: clone 329: anti-C5aR1 Site II antibody; VH SEQ ID NO: 492, VL SEQ ID NO: 552 (antibody, V domains shown)
VH: QVQLQQSGAELTKPGASVKLSCKASGYTFTNYWMHWVKQRPGQGLEWIGYLNPSSGYTKYNQKFKDKATLTADKSSSTAYMQLNSLTYEDSAVYYCTRSGGDNYGNPYYFDRWGQGTTVTVSS
VL: DVVMTQTPLSLTVSLGDQASISCRSSQSLVHSNGNTYLHWYLQKPGQSPKFLIYKVSNRFSGVPDRFSGSGSGTDFRLKISRVEAEDLGVYFCSQSTLVPLTFGAGTKLEIK
B3: clone 583: anti-C5aR1 Site I antibody; VH SEQ ID NO: 536, VL SEQ ID NO: 595 (antibody, V domains shown)
VH: EVQLVESGGGLVKPGGSLKLSCAASGFTFNAYAMSWVRQTPEKRLEWVASISTGGNTYCPDSVKDRFTVSRDNVRNILYLQMSSLRSEDTAMYYCTRGYQRFSGFAYWGQGTLVTVS
VL: DVVMTQTPLSPPVSLGYQASISCRSSQSLVHSNGNTYLNWYLQKPGQSPKLLIYKVSNRLSGVPDRFSGSGSGTDFTLKISRVETEDLGVYFCSQSTHVPYTFGGGTKLEIK

Assays:
[1] = system: C5aR1 mutants (N-terminus, ECL1, ECL2, ECL3); assay: Alanine scanning / mutagenesis epitope mapping of C5aR1; format: binding, human
Text: FIG. 5A is a diagram showing the results of alanine scanning mutations of site I interaction with mab 583. The N-terminal amino acid sequence of C5aR1 is listed across the top of the figure. Glycosylation sites are indicated by rectangle boxes. The only natural glycosylation site is at position N5. The other sites were introduced by mutagenesis. Mutations that abolished clone 583 binding are circled. The sulfated tyrosines at positions 11 and 14 are marked with a star sign. FIG. 5B is a diagram showing results of alanine scanning mutations of site I interaction with mab 66. Mutations that abolished clone 66 binding are circled. The sulfated tyrosines at positions 11 and 14 are marked with a star sign.
Ala substitutions of T8 & D10 moderately reduces its affinity while Y11 & D15 abolishes mAb binding. […] N-glycosylation of at N17 or D17P also abolishes mAb binding. N5 glycan is tolerated but a tandem glycosylation (N5 & N17) is not tolerated. mAb core epitopes are T8-G12 but nature of AA present in D15-D18 influence its binding. […] The core epitope appears to be located near T8-G12, with additional contributions from D15-D18.
Clone 66 was previously characterized as a site I binder and its binding is dependent on tyrosine sulfation at positions 11Y and/or 14Y. […] It should be noted that the only the only non-human species to retain clone 66 binding was baboon, which is the only NHP that retains the DYGHY motif.
However, it was unknown if additional contacts were made with ECL1 or ECL3. […] The data is highlighted in FIG. 5C-5E.
The core epitope of clone 11 is from E180-P183; the core epitope of clone 329 is from E180-P184; and the core epitope of clone 336 is from R178-P183. […] The data for clones 11, 329, and 336 is highlighted in FIG. 5F.

[2] = biological target: T1, biotinylated peptide representing the N-terminus of C5aR1 without tyrosine sulfation; assay: Epitope mapping by biolayer interferometry, N-terminus without tyrosine sulfation; format: binding; design: key: “+” indicates binding to the listed peptide; “−” indicates lack of binding to the listed peptide; conditions: 10 μg/mL of antibody, biotinylated peptide on streptavidin biosensor
Procedure: (§1) The epitope mapping was undertaken, using biolayer interferometry, on a series of exemplary anti-C5aR1 antibodies generated as described in Example 1. Briefly, for each antibody, biotinylated peptides representing ECL2, the N-terminus with tyrosine sulfation, and the N-terminus without tyrosine sulfation, were immobilized in a streptavidin biosensor. Subsequently, the biosensor was exposed to 10 μg/mL of antibody to detect antibody binding to the immobilized peptide. The results of the epitope mapping study are shown in Table 4 (“+” indicates binding to the listed peptide; “−” indicates lack of binding to the listed peptide).

[3] = biological target: T2, biotinylated peptide representing the N-terminus of C5aR1 with tyrosine sulfation; assay: Epitope mapping by biolayer interferometry, N-terminus with tyrosine sulfation; format: binding; design: key: “+” indicates binding to the listed peptide; “−” indicates lack of binding to the listed peptide; conditions: 10 μg/mL of antibody, biotinylated peptide on streptavidin biosensor
Procedure: as §1

[4] = biological target: T4, biotinylated peptide representing ECL2 of C5aR1 (Homo sapiens, UniProt P21730); assay: Epitope mapping by biolayer interferometry, ECL2 peptide; format: binding; design: key: “+” indicates binding to the listed peptide; “−” indicates lack of binding to the listed peptide
T4 construct: cyclic ECL2 peptide spanning from residues R175 to C188
Procedure: as §1

C5aR1 = biological target: T3, C5aR1; assay: GeneBLAzer reporter assay (C5aR1 mediated Gα signaling); format: cell-based; design: host or cells: vendor's C5aR1 GeneBLAzer reporter cell line; conditions: for inhibition of C5aR1 signaling / activity in the GeneBLAzer assay: C5a dose response with varying concentrations of antibody; for antagonism of C5aR1 compared to reference antibodies or to Avacopan: 10 nM of antibody, 10 nM C5a; for inhibition of C5aR1 mediated Gα signaling in the presence of C5-alpha: U937 cells, increasing concentrations of C5-alpha, FIGS. 20A-20G
Procedure: In addition, a GeneBLAzer reporter assay was used, which mimics the calcium flux assay. The GeneBLAzer assay kit and C5aR1 cell line were commercially available from Thermo Fisher (Catalog #K1544). The assay was performed as recommend by the manufacturer. Briefly, antibodies or antagonists were incubated for 30 minutes at 37° C. C5a was then added to the cells and incubated at 37° C. for an additional 4-5 hours. Beta-lactamase substrate was then added and incubated for 2 hours at room temperature. Fluorescent measurements for each well with an excitation/emission of 409/460 (blue) and 409/530 (green) were measured. An increase in the blue to green ratio was proportional to C5aR1 activation and was used to calculate the percent of activation for the cells in each well.
Exemplary anti-C5aR1 antibodies generated as described in Example 1 were screened for antagonist activity against human C5aR1 using the GeneBLAzer assay, as described in Example 1. Briefly, cells were pre-incubated with 10 nM of antibody followed by addition of 10 nM C5a. The engineered induction of beta-lactamase expression by C5a-C5aR1 signaling was measured using the BLA substrate and calculating the ratio of blue and green fluorescence.

[5] = biolayer interferometry, 10 μg/mL of antibody, biotinylated peptide on streptavidin biosensor

Row | Molecule | non-human species that retains binding [1] | requirement of tyrosine sulfation (Y11, Y14) for binding [1] | Binding to Non-sulfated N-terminal peptide [2] | Binding to Sulfated N-terminal peptide [3] | Binding to Cyclic ECL2 peptide [4, 5] | inhibition of C5aR1 signaling / activity in the GeneBLAzer assay (C5aR1) | binding to C5aR1 mutant ([1]; Ala mutation of E180 & Y181) | binding to C5aR1 mutant ([1]; mutation of Y182, P183 & P184) | Binding to Cyclic ECL2 peptide ([4]; peptide spanning residues R175 to C188) | antagonism of C5aR1 compared to reference antibodies or to Avacopan (C5aR1) | inhibition of C5aR1 mediated Gα signaling in the presence of C5-alpha (C5aR1) | cross-reactivity to cyno and rhesus monkey [1] | binding to C5aR1 mutant ([1]; G12A/T) | binding to C5aR1 mutant ([1]; G12E/D) | binding to C5aR1 mutant ([1]; mutations at D15) | binding to C5aR1 mutant ([1]; mutations at positions 13 and 14)
1 | B1 | baboon | sulfation is only required at position 14 | − | + | − | highly potent |  |  |  |  |  |  |  |  |  | 
2 | B2 |  |  | − | − | + | inhibited in a dose-dependent fashion | abolished mAb binding | reduced binding | bound to a cyclic ECL2 peptide | improved | inhibition of C5aR1 mediated Gα signaling |  |  |  |  | 
3 | B3 |  | tyrosine sulfation is not required | + | + | − | highly potent |  |  |  | improved | inhibition of C5aR1 mediated Gα signaling | lack of cross-reactivity | tolerated | abolish binding | abolish binding | tolerated

Reference: patent US12187807B2, “Antibody molecules to C5AR1 and uses thereof” (Visterra, Inc., priority 2020, dated 2025)
